In patent US20230356187A1 (AMICOGEN, published 2023):

These binders were tested against T1, IgG(f) protein (Herceptin scFv) (assay: binder coupled to NHS-Sepharose in 96-well filter plate; bound IgG(f) eluted and read at OD280 after 0.3 M NaOH).
T1 construct: Polypeptide of the human IgG1-based scFv region (GenBank AWW43726); Expressed from pET29a(+) (NdeI/XhoI) in E. coli and purified on Ni-NTA resin; also called recombinant immunoglobulin G fragment
T1 sequence (scFv, as listed by the source): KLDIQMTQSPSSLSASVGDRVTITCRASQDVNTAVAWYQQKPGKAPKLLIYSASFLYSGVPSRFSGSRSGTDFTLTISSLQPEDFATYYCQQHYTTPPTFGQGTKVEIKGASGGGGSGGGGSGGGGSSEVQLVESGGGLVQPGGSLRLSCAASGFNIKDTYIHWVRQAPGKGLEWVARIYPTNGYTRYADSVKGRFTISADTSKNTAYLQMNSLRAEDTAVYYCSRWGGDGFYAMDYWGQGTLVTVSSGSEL

Binder | binding result
Protein L B3 domain variant BEP3(E28G/D51V) (designed binder, not shown: 6xHis tag) MPKEEVTIKANLIYADGKTQTAEFKGTFGEATAEAYRYADLLAKENGKYTVVVADKGYTLNIKFAGKEKTPEE | binds
Protein L B3 domain variant EPS5(E28G/D51T) (designed binder, not shown: 6xHis tag) MPKEEVTIKANLIYADGKTQTAEFKGTFGEATAEAYRYADLLAKENGKYTVTVADKGYTLNIKFAGKEKTPEE | binds
Protein L B3 domain variant EPS1(E28L) (designed binder, not shown: 6xHis tag) MPKEEVTIKANLIYADGKTQTAEFKGTFLEATAEAYRYADLLAKENGKYTVDVADKGYTLNIKFAGKEKTPEE | binds
Protein L B3 domain variant BEP2(E28G/K43P) (designed binder, not shown: 6xHis tag) MPKEEVTIKANLIYADGKTQTAEFKGTFGEATAEAYRYADLLAPENGKYTVDVADKGYTLNIKFAGKEKTPEE | binds
Protein L B3 domain variant EPS3(E28W) (designed binder, not shown: 6xHis tag) MPKEEVTIKANLIYADGKTQTAEFKGTFWEATAEAYRYADLLAKENGKYTVDVADKGYTLNIKFAGKEKTPEE | binds
Protein L B3 domain variant EPS2(E28P) (designed binder, not shown: 6xHis tag) MPKEEVTIKANLIYADGKTQTAEFKGTFPEATAEAYRYADLLAKENGKYTVDVADKGYTLNIKFAGKEKTPEE | binds
Protein L B3 domain variant EPS4(E28G/K43E) (designed binder, not shown: 6xHis tag) MPKEEVTIKANLIYADGKTQTAEFKGTFGEATAEAYRYADLLAEENGKYTVDVADKGYTLNIKFAGKEKTPEE | binds
Protein L B3 domain variant BEP1(E28G/Y13F) (designed binder, not shown: 6xHis tag) MPKEEVTIKANLIFADGKTQTAEFKGTFGEATAEAYRYADLLAKENGKYTVDVADKGYTLNIKFAGKEKTPEE | binds
Protein L B3 domain variant BEP4(E28G/N60E) (designed binder, not shown: 6xHis tag) MPKEEVTIKANLIYADGKTQTAEFKGTFGEATAEAYRYADLLAKENGKYTVDVADKGYTLEIKFAGKEKTPEE | binds
Protein L B3 domain variant EPS6(E28G/N60F) (designed binder, not shown: 6xHis tag) MPKEEVTIKANLIYADGKTQTAEFKGTFGEATAEAYRYADLLAKENGKYTVDVADKGYTLFIKFAGKEKTPEE | binds

Each binder was assayed against T1, IgG(f) protein (Herceptin scFv) (assay: binder coupled to NHS-Sepharose in 96-well filter plate; bound IgG(f) eluted at pH 2.5 and read at OD280, before and after 0.3 M NaOH).

Binder | binding result
Wild-type Protein L B3 domain (other, also called wB3; wild-type B3 domain; not shown: 6xHis tag) MPKEEVTIKANLIYADGKTQTAEFKGTFEEATAEAYRYADLLAKENGKYTVDVADKGYTLNIKFAGKEKTPEE | binds
Protein L B3 domain variant EP1(E28A) (designed binder, not shown: 6xHis tag) MPKEEVTIKANLIYADGKTQTAEFKGTFAEATAEAYRYADLLAKENGKYTVDVADKGYTLNIKFAGKEKTPEE | binds

These binders were tested against T1, IgG(f) protein (Herceptin scFv) (assay: binder coupled to NHS-Sepharose; bound IgG(f) eluted and read at OD280; relative to 0 h (100%), after 5 h in 0.3 M NaOH; reference wB3).
Experimental: The library prepared in Example 5 was purified by the same manner as in Examples <1-3>, and the absorbance over time was measured by the same method as in Example 3 to compare the alkali tolerance. The absorbance over time obtained is shown in FIG. 5 as a relative value to the absorbance (100%) at the beginning (0 h).

Binder | fold increase in alkali tolerance (residual scFv binding activity after 5 hours in 0.3 M NaOH) compared to wB3 [fold]
Protein L B3 domain variant mBF4 (Y13F/E28G/K43P) (designed binder, also called mBF monomer; not shown: 6xHis tag) MPKEEVTIKANLIFADGKTQTAEFKGTFGEATAEAYRYADLLAPENGKYTVDVADKGYTLNIKFAGKEKTPEE | ~2.7

These binders were tested against T1, IgG(f) protein (Herceptin scFv) (assay: binder coupled to NHS-Sepharose in 96-well filter plate; bound IgG(f) eluted and read at OD280 after 0.3 M NaOH; reference set to 100%).

Binder | binding result
Protein L B3 domain variant EP2(E28G) (designed binder, not shown: 6xHis tag) MPKEEVTIKANLIYADGKTQTAEFKGTFGEATAEAYRYADLLAKENGKYTVDVADKGYTLNIKFAGKEKTPEE | binds
